pIC50, pKd, pKi: −log10 of the molar value.

Experiment [1] deals with Human Bcl-2 protein (isoform 2 construct), N-terminal 6xHis tagged recombinant protein (human). In words: SPR; competitive solution binding: protein (20 nM) pre-incubated with tested BH3 peptide for at least 30 min, injected over immobilised biotin-Bim BH3 peptide; response at 30 s of dissociation. (In general: SPR reads the build-up and loss of mass on a sensor chip optically.)

Experiment [2] shares this target. The experiment can be described thus: fluorescence polarisation; competition: Mcl-1 (20 nM) or Bcl-2 (40 nM) pre-incubated with FAM-Bid (2 nM and 2.5 nM), tested BH3 peptide added, 2-3 h; 100 mM potassium phosphate, pH 7.5, 100 ug/ml bovine gamma globulin, 0.02% sodium azide; Ki calculated from IC50.
For experiment [3] the target is unchanged. In words: fluorescence polarisation; saturation experiments with FAM-Bid and Mcl-1 or Bcl-2 protein; assay buffer 100 mM potassium phosphate, pH 7.5, 100 ug/ml bovine gamma globulin, 0.02% sodium azide. For orientation: Polarisation of emitted light reports the rotation of a fluorescent probe.

With Bid BH3 peptide (residues 79-99), in experiment [1], the pIC50 (commonly the negative decadic logarithm of the IC50, by convention in mol/L) is 7.29. For the same substance, the negative-log Ki (pKi) (commonly −log10 of the Ki, conventionally taken in molar units) in experiment [2] is 7.95.

As to “21-residue Bid BH3 peptide labeled at the N-terminus with 6-carboxyfluorescein succinimidyl ester (FAM-Bid)”, in experiment [3], the pKd – broadly, the negative decadic logarithm of the Kd, by convention in mol/L – is 8.20.

These data come from article PMC3717276, “Optimization and validation of mitochondria-based functional assay as a useful tool to identify BH3-like molecules selectively targeting anti-apoptotic Bcl-2 proteins” (BMC Biotechnology, 2013).
